Measurements reported in paper PMC2835748.

Test system: GST-PTB (polypyrimidine tract binding protein)
Experiment: EMSA
Details: EMSA: 85 nM RNA, 50 mM HEPES pH 7.6, 25 mM KCl, 2.5 mM MgCl2, 1 mM DTT, 4% glycerol, 0.67 ug/ul yeast tRNA, 10 min at 30 C; 4% native gel with 5% glycerol

Substance | binding signal (relative affinity (reference)) | binding signal (relative to 1-245)
FCV gRNA 1-245 | 1 | 
FCV gRNA 1-202 WT |  | 1
